The values below come from article PMC4358659, “The functional interactome of PYHIN immune regulators reveals IFIX is a sensor of viral DNA”.

Series [1] has as its target T1, GST-IFIX-HIN200 (human, UniProt Q6K0P9 200-492).
T1 sequence: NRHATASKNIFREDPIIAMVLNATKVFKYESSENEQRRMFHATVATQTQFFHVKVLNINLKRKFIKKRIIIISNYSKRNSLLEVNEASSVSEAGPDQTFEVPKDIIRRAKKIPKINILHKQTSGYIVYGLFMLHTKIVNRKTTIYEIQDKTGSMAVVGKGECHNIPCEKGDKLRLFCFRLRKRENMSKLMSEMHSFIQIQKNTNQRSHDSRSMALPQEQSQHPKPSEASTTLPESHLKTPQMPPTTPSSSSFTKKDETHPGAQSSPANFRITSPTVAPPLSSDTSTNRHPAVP
Description: EMSA; 2 pmol protein, 20 fmol DNA; EMSA: 10 mM Tris pH 7.5, 50 mM KCl, 1 mM DTT, 50 μg/ml BSA, ambient temperature, 30 min. The note with it: protein: recombinant; tags: N-terminal GST (pGEX-4T1); label: 5'-biotin on sense strand; blunt.

Series [2] addresses T1, GST-IFIX-HIN200. Description: competition; unlabeled ISD competes with biotinylated ISD (EMSA); EMSA: 10 mM Tris pH 7.5, 50 mM KCl, 1 mM DTT, 50 μg/ml BSA, ambient temperature, 30 min. The note with it: protein: recombinant; tags: N-terminal GST (pGEX-4T1); blunt.

B1: ISD (biotinylated) (dsDNA)
DNA 1: TACAGATCTACTAGTGATCTATGACTGATCTGTACATGATCTACA
DNA 2: TGTAGATCATGTACAGATCAGTCATAGATCACTAGTAGATCTGTA
Turning to B1, the binding result in series [1] was “binds”.

B2: ISD (unlabeled competitor) (dsDNA)
DNA 1: B1 DNA 1
DNA 2: B1 DNA 2
Consider B2, for which the binding result in series [2] was “binds”.
